{"source": "patent US20210060169A1", "binders": {"B1": {"name": "8His-S4(oAzZK)-Li30/F78(oAzZK)-Li30 (ligand)", "chain": "MHHHHHHHHAPTKSSTKKTQLQLEHLLLDLQMILNGINNYKNPKLTRMLTFKFYMPKKATELKHLQCLEEELKPLEEVLNLAQSKNKHLRPRDLISNINVIVLELKGSETTFMCEYADETATIVEFLNRWITFSQSIISTLT"}, "B2": {"name": "8His-S4(oAzZK)-Li30/I129(oAzZK)-Li30 (ligand)", "chain": "B1 chain with K87F, I138K"}, "B3": {"name": "8His-S4(oAzZK)-Y50/I129(oAzZK)-Y50 (ligand)", "chain": "B1 chain with K87F, I138K"}}, "key": {"human IL-2Rαβγ (human)": {"target": "human IL-2Rαβγ (human) (UniProt P01589)", "sequence (P01589 22-272, chain 1 of 3)": "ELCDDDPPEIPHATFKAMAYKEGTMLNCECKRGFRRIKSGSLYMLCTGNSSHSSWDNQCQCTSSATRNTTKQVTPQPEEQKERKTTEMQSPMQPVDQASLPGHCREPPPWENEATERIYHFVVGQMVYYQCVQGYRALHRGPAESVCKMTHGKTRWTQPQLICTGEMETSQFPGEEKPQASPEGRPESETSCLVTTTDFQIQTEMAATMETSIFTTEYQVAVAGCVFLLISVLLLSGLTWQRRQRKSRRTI", "sequence (P14784 27-551, chain 2 of 3, further chain)": "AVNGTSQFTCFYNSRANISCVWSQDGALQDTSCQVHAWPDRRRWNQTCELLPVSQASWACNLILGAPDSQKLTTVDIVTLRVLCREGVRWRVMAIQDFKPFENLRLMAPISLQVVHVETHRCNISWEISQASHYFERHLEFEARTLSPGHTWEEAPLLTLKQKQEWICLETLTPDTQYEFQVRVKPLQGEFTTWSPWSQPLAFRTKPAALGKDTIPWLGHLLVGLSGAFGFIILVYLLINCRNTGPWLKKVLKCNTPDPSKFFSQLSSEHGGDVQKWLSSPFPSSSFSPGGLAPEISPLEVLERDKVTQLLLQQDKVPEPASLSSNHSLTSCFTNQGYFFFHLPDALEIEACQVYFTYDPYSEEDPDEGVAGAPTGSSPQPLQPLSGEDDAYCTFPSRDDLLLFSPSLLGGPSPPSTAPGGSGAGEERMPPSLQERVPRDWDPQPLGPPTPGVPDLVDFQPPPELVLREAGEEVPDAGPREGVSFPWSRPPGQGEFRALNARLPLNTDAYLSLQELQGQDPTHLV", "sequence (P31785 23-369, chain 3 of 3, further chain)": "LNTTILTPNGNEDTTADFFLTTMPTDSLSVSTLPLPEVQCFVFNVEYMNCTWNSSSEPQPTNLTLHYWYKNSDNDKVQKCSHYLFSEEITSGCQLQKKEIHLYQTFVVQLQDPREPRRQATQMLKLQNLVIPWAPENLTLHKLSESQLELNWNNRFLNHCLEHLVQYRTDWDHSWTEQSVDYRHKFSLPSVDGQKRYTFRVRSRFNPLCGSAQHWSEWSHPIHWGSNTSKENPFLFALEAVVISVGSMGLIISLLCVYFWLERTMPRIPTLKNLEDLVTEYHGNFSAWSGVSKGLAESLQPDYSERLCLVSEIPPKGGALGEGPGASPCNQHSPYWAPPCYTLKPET", "experiment": "cell-based or functional assay"}, "human IL-2Rβγ (human)": {"target": "human IL-2Rβγ (human) (UniProt P14784)", "sequence (P14784 27-551, chain 1 of 2)": "as the sequence (P14784 27-551, chain 2 of 3, further chain) above", "sequence (P31785 23-369, chain 2 of 2, further chain)": "as the sequence (P31785 23-369, chain 3 of 3, further chain) above", "experiment": "cell-based or functional assay"}}, "note": "Numbering of substitutions follows the chain as printed.", "data": [{"binder": "B1", "values": [{"measurement": "Standardized EC50 ratio value", "setting": "human IL-2Rαβγ (human)", "value": "> 30"}, {"measurement": "Treg proliferation rate at 650 to 6500 pmol/L", "setting": "human IL-2Rαβγ (human)", "value": "> 80", "unit": "%"}]}, {"binder": "B2", "values": [{"measurement": "NK cell proliferation rate at 65 nmol/L (proliferation medium)", "setting": "human IL-2Rβγ (human)", "value": "< 20", "unit": "%"}, {"measurement": "Standardized EC50 ratio value", "setting": "human IL-2Rαβγ (human)", "value": "> 30"}, {"measurement": "Treg proliferation rate at 650 to 6500 pmol/L", "setting": "human IL-2Rαβγ (human)", "value": "> 80", "unit": "%"}]}, {"binder": "B3", "values": [{"measurement": "Standardized EC50 ratio value", "setting": "human IL-2Rαβγ (human)", "value": "> 30"}]}]}
